Results as given in paper PMC8807840.

Key:
[1] = target: A3A-CBE (A3A-nCas9-2xUGI)
[2] = target: A3Bctd-CBE (A3Bctd-nCas9-2xUGI)
[3] = target: A3Gctd-CBE (A3Gctd-nCas9-2xUGI)

B1: Ade1 (EBV-BORF2) (natural protein)
chain: MATTSHVEHELLSKLIDELKVKANSDPEADVLAGRLLHRLKAESVTHTVAEYLEVFSDKFYDEEFFQMHRDELETRVSAFAQSPAYERIVSSGYLSALRYYDTYLYVGRSGKQESVQHFYMRLAGFCASTTCLYAGLRAALQRARPEIESDMEVFDYYFEHLTSQTVCCSTPFMRFAGVENSTLASCILTTPDLSSEWDVTQALYRHLGRYLFQRAGVGVGVTGAGQDGKHISLLMRMINSHVEYHNYGCKRPVSVAAYMEPWHSQIFKFLETKLPENHERCPGIFTGLFVPELFFKLFRDTPWSDWYLFDPKDAGDLERLYGEEFEREYYRLVTAGKFCGRVSIKSLMFSIVNCAVKAGSPFILLKEACNAHFWRDLQGEAMNAANLCAEVLQPSRKSVATCNLANICLPRCLVNAPLAVRAQRADTQGDELLLALPRLSVTLPGEGAVGDGFSLARLRDATQCATFVVACSILQGSPTYDSRDMASMGLGVQGLADVFADLGWQYTDPPSRSLNKEIFEHMYFTALCTSSLIGLHTRKIFPGFKQSKYAGGWFHWHDWAGTDLSIPREIWSRLSERIVRDGLFNSQFIALMPTSGCAQVTGCSDAFYPFYANASTKVTNKEEALRPNRSFWRHVRLDDREALNLVGGRVSCLPEALRQRYLRFQTAFDYNQEDLIQMSRDRAPFVDQSQSHSLFLREEDAARASTLANLLVRSYELGLKTIMYYCRIEKAADLGVMECKASAALSVPREEQNERSPAEQMPPRPMEPAQVAGPVDIMSKGPGEGPGGWCVPGGLEVCYKYRQLFSEDDLLETDGFTERACESCQ
For B1, which fold inhibition of base editing by Ade1 at the FANCF site, HEK293T cells (Fig. 2e) [1] is on record?
The fold inhibition of base editing by Ade1 at the FANCF site, HEK293T cells (Fig. 2e) was 1.06 fold.

What about the fold inhibition of base editing by Ade1 at the FANCF site, HEK293T cells (Fig. 2e) (A3Bctd-L1A CBE chimera) of the same binder?
The fold inhibition of base editing by Ade1 at the FANCF site, HEK293T cells (Fig. 2e) was 1.47 fold.

What about the fold inhibition of base editing by Ade1 at the FANCF site, HEK293T cells (Fig. 2e) (A3Gctd-L7B CBE chimera) of the same binder?
The fold inhibition of base editing by Ade1 at the FANCF site, HEK293T cells (Fig. 2e) was 1.32 fold.

And the fold inhibition of base editing by Ade1 at the FANCF site, HEK293T cells (Fig. 2e) [2]?
The fold inhibition of base editing by Ade1 at the FANCF site, HEK293T cells (Fig. 2e) was 5.2 fold.

What about the fold inhibition of base editing by Ade1 at the FANCF site, HEK293T cells (Fig. 2e) [3] of the same binder?
Its fold inhibition of base editing by Ade1 at the FANCF site, HEK293T cells (Fig. 2e) is 0.96 fold.

And the fold inhibition of base editing by Ade1 at the FANCF site, HEK293T cells (Fig. 2e) (A3Bctd-L7G CBE chimera)?
Its fold inhibition of base editing by Ade1 at the FANCF site, HEK293T cells (Fig. 2e) is 1.06 fold.

And the fold inhibition of base editing by Ade1 at the FANCF site, HEK293T cells (Fig. 2e) (A3A-L1B CBE chimera)?
Its fold inhibition of base editing by Ade1 at the FANCF site, HEK293T cells (Fig. 2e) is 3.26 fold.

And the fold inhibition of base editing by Ade1 at the FANCF site, HEK293T cells (Fig. 2e) (A3Gctd-L1L7B CBE chimera)?
Its fold inhibition of base editing by Ade1 at the FANCF site, HEK293T cells (Fig. 2e) is 5.66 fold.

And the fold inhibition of base editing by Ade1 at the FANCF site, HEK293T cells (Fig. 2e) (A3Gctd-L1B CBE chimera)?
Its fold inhibition of base editing by Ade1 at the FANCF site, HEK293T cells (Fig. 2e) is 5.67 fold.
